Data reported in patent US20160287687A1 (IMMATICS BIOTECHNOLOGIES, published 2016).

Molecular target: T1, HLA-A*02:01 (human)
T1 construct: MHC monomers first loaded with a UV-sensitive peptide (not identified) that is cleaved by UV light and exchanged for the test peptide; captured on streptavidin plates, detected with anti-β2m; also called peptide-receptive MHC molecules; MHC class I
Assay: UV-ligand exchange + anti-b2m ELISA; peptide exchange yield grade (+ >=10%, ++ >=20%, +++ >=50, ++++ >=75%)
Text: Candidate peptides for T cell based therapies according to the present invention were further tested for their MHC binding capacity (affinity). The individual peptide-MHC complexes were produced by UV-ligand exchange, where a UV-sensitive peptide is cleaved upon UV-irradiation, and exchanged with the peptide of interest as analyzed. Only peptide candidates that can effectively bind and stabilize the peptide-receptive MHC molecules prevent dissociation of the MHC complexes. To determine the yield of the exchange reaction, an ELISA was performed based on the detection of the light chain (β2m) of stabilized MHC complexes. The assay was performed as generally described in Rodenko et al. (Rodenko et al., 2006).
96 well MAXISorp plates (NUNC) were coated over night with 2 ug/ml streptavidin in PBS at room temperature, washed 4× and blocked for 1h at 37° C. in 2% BSA containing blocking buffer. Refolded HLA-A*02:01/MLA-001 monomers served as standards, covering the range of 15-500 ng/ml. Peptide-MHC monomers of the UV-exchange reaction were diluted 100 fold in blocking buffer. Samples were incubated for 1 h at 37° C., washed four times, incubated with 2 ug/ml HRP conjugated anti-β2m for 1h at 37° C., washed again and detected with TMB solution that is stopped with […]. Absorption was measured at 450 nm. […]

B1: SLTALRLLL (SEQ ID NO: 70) (peptide)
peptide: SLTALRLLL
notes: source gene KBTBD11
peptide exchange yield: 20 to 50%
